Measurements as given in IntAct's records for PubMed 19229295.

B1: Growth/differentiation factor 5 (Homo sapiens), P43026 (parent)
chain: MRLPKLLTFLLWYLAWLDLEFICTVLGAPDLGQRPQGTRPGLAKAEAKERPPLARNVFRPGGHSYGGGATNANARAKGGTGQTGGLTQPKKDEPKKLPPRPGGPEPKPGHPPQTRQATARTVTPKGQLPGGKAPPKAGSVPSSFLLKKAREPGPPREPKEPFRPPPITPHEYMLSLYRTLSDADRKGGNSSVKLEAGLANTITSFIDKGQDDRGPVVRKQRYVFDISALEKDGLLGAELRILRKKPSDTAKPAAPGGGRAAQLKLSSCPSGRQPAALLDVRSVPGLDGSGWEVFDIWKLFRNFKNSAQLCLELEAWERGRAVDLRGLGFDRAARQVHEKALFLVFGRTKKRDLFFNEIKARSGQDDKTVYEYLFSQRRKRRAPLATRQGKRPSKNLKARCSRKALHVNFKDMGWDDWIIAPLEYEAFHCEGLCEFPLRSHLEPTNHAVIQTLMNSMDPESTPPTCCVPTRLSPISILFIDSANNVVYKQYEDMVVESCGCR
B2: Bone morphogenetic protein receptor type-1B (Homo sapiens), O00238 (parent)
chain: MLLRSAGKLNVGTKKEDGESTAPTPRPKVLRCKCHHHCPEDSVNNICSTDGYCFTMIEEDDSGLPVVTSGCLGLEGSDFQCRDTPIPHQRRSIECCTERNECNKDLHPTLPPLKNRDFVDGPIHHRALLISVTVCSLLLVLIILFCYFRYKRQETRPRYSIGLEQDETYIPPGESLRDLIEQSQSSGSGSGLPLLVQRTIAKQIQMVKQIGKGRYGEVWMGKWRGEKVAVKVFFTTEEASWFRETEIYQTVLMRHENILGFIAADIKGTGSWTQLYLITDYHENGSLYDYLKSTTLDAKSMLKLAYSSVSGLCHLHTEIFSTQGKPAIAHRDLKSKNILVKKNGTCCIADLGLAVKFISDTNEVDIPPNTRVGTKRYMPPEVLDESLNRNHFQSYIMADMYSFGLILWEVARRCVSGGIVEEYQLPYHDLVPSDPSYEDMREIVCIKKLRPSFPNRWSSDECLRQMGKLMTECWAHNPASRLTALRVKKTLAKMSESQDIKL
partner: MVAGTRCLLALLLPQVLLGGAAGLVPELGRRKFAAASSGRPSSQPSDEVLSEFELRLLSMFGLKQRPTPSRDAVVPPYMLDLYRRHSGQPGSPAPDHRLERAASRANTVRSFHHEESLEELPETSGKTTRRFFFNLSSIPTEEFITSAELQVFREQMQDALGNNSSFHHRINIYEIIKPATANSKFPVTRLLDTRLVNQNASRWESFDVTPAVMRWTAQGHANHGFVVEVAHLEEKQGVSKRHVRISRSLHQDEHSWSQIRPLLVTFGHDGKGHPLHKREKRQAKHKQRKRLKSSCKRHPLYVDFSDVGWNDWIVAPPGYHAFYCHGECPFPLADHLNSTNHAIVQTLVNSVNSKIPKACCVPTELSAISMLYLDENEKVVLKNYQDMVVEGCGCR

Variants of: B1
Details: with bmr1b_human BMPR1B

Row | effect of a mutation on the interaction | Variant
1 | increasing interaction | MRLPKLLTFLLWYLAWLDLEFICTVLGAPDLGQRPQGTRPGLAKAEAKERPPLARNVFRPGGHSYGGGATNANARAKGGTGQTGGLTQPKKDEPKKLPPRPGGPEPKPGHPPQTRQATARTVTPKGQLPGGKAPPKAGSVPSSFLLKKAREPGPPREPKEPFRPPPITPHEYMLSLYRTLSDADRKGGNSSVKLEAGLANTITSFIDKGQDDRGPVVRKQRYVFDISALEKDGLLGAELRILRKKPSDTAKPAAPGGGRAAQLKLSSCPSGRQPAALLDVRSVPGLDGSGWEVFDIWKLFRNFKNSAQLCLELEAWERGRAVDLRGLGFDRAARQVHEKALFLVFGRTKKRDLFFNEIKARSGQDDKTVYEYLFSQRRKRRAPLATRQGKRPSKNLKARCSRKALHVNFKDMGWDDWIIAPLEYEAFHCEGLCEFPLLSHLEPTNHAVIQTLMNSMDPESTPPTCCVPTRLSPISILFIDSANNVVYKQYEDMVVESCGCR [R438L]

Variants of: B1
Details: with bmpr2_human BMPR2, Q13873
Sequence of bmpr2_human BMPR2, Q13873 (Q13873 whole entry): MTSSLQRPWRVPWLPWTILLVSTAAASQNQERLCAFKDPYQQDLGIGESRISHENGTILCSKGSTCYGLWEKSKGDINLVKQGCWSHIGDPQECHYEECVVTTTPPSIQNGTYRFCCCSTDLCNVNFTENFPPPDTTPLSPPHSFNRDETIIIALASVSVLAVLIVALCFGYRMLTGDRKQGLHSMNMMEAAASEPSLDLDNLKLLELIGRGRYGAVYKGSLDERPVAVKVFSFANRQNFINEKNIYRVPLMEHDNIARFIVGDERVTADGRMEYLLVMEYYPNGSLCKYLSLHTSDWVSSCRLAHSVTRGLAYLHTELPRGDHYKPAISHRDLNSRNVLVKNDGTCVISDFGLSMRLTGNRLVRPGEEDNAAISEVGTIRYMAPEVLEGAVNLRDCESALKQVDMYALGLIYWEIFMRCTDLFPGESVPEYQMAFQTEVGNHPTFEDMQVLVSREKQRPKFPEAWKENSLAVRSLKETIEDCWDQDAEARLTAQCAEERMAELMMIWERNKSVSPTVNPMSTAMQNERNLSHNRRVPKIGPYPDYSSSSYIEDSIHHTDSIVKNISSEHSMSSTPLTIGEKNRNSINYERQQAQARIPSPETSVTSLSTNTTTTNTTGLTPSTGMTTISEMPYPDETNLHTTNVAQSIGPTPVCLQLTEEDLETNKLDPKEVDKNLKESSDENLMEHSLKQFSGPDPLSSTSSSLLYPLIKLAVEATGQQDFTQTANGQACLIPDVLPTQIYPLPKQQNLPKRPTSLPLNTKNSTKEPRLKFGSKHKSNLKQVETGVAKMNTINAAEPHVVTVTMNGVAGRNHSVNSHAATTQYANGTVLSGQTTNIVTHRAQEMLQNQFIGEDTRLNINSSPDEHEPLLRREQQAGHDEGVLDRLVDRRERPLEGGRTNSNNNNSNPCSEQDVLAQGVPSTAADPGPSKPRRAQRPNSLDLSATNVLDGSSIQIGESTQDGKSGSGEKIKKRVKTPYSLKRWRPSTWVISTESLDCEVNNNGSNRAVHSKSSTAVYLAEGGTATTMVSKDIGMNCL

Row | effect of a mutation on the interaction | Variant
2 | increasing interaction | MRLPKLLTFLLWYLAWLDLEFICTVLGAPDLGQRPQGTRPGLAKAEAKERPPLARNVFRPGGHSYGGGATNANARAKGGTGQTGGLTQPKKDEPKKLPPRPGGPEPKPGHPPQTRQATARTVTPKGQLPGGKAPPKAGSVPSSFLLKKAREPGPPREPKEPFRPPPITPHEYMLSLYRTLSDADRKGGNSSVKLEAGLANTITSFIDKGQDDRGPVVRKQRYVFDISALEKDGLLGAELRILRKKPSDTAKPAAPGGGRAAQLKLSSCPSGRQPAALLDVRSVPGLDGSGWEVFDIWKLFRNFKNSAQLCLELEAWERGRAVDLRGLGFDRAARQVHEKALFLVFGRTKKRDLFFNEIKARSGQDDKTVYEYLFSQRRKRRAPLATRQGKRPSKNLKARCSRKALHVNFKDMGWDDWIIAPLEYEAFHCEGLCEFPLLSHLEPTNHAVIQTLMNSMDPESTPPTCCVPTRLSPISILFIDSANNVVYKQYEDMVVESCGCR [R438L]

Variants of: B1
Details: with bmr1a_human BMPR1A

Row | effect of a mutation on the interaction | Variant
3 | increasing interaction | MRLPKLLTFLLWYLAWLDLEFICTVLGAPDLGQRPQGTRPGLAKAEAKERPPLARNVFRPGGHSYGGGATNANARAKGGTGQTGGLTQPKKDEPKKLPPRPGGPEPKPGHPPQTRQATARTVTPKGQLPGGKAPPKAGSVPSSFLLKKAREPGPPREPKEPFRPPPITPHEYMLSLYRTLSDADRKGGNSSVKLEAGLANTITSFIDKGQDDRGPVVRKQRYVFDISALEKDGLLGAELRILRKKPSDTAKPAAPGGGRAAQLKLSSCPSGRQPAALLDVRSVPGLDGSGWEVFDIWKLFRNFKNSAQLCLELEAWERGRAVDLRGLGFDRAARQVHEKALFLVFGRTKKRDLFFNEIKARSGQDDKTVYEYLFSQRRKRRAPLATRQGKRPSKNLKARCSRKALHVNFKDMGWDDWIIAPLEYEAFHCEGLCEFPLLSHLEPTNHAVIQTLMNSMDPESTPPTCCVPTRLSPISILFIDSANNVVYKQYEDMVVESCGCR [R438L]

Variants of: B1
Details: with bmr1b_human BMPR1B
Remark: another data set of the same source

Row | effect of a mutation on the interaction | Variant
4 | decreasing interaction | MRLPKLLTFLLWYLAWLDLEFICTVLGAPDLGQRPQGTRPGLAKAEAKERPPLARNVFRPGGHSYGGGATNANARAKGGTGQTGGLTQPKKDEPKKLPPRPGGPEPKPGHPPQTRQATARTVTPKGQLPGGKAPPKAGSVPSSFLLKKAREPGPPREPKEPFRPPPITPHEYMLSLYRTLSDADRKGGNSSVKLEAGLANTITSFIDKGQDDRGPVVRKQRYVFDISALEKDGLLGAELRILRKKPSDTAKPAAPGGGRAAQLKLSSCPSGRQPAALLDVRSVPGLDGSGWEVFDIWKLFRNFKNSAQLCLELEAWERGRAVDLRGLGFDRAARQVHEKALFLVFGRTKKRDLFFNEIKARSGQDDKTVYEYLFSQRRKRRAPLATRQGKRPSKNLKARCSRKALHVNFKDMGWDDWIIAPLEYEAFHCEGLCEFPLRSHPEPTNHAVIQTLMNSMDPESTPPTCCVPTRLSPISILFIDSANNVVYKQYEDMVVESCGCR [L441P]

Variants of: B1
Details: with bmpr2_human BMPR2, Q13873
Remark: another data set of the same source

Row | effect of a mutation on the interaction | Variant
5 | increasing interaction | MRLPKLLTFLLWYLAWLDLEFICTVLGAPDLGQRPQGTRPGLAKAEAKERPPLARNVFRPGGHSYGGGATNANARAKGGTGQTGGLTQPKKDEPKKLPPRPGGPEPKPGHPPQTRQATARTVTPKGQLPGGKAPPKAGSVPSSFLLKKAREPGPPREPKEPFRPPPITPHEYMLSLYRTLSDADRKGGNSSVKLEAGLANTITSFIDKGQDDRGPVVRKQRYVFDISALEKDGLLGAELRILRKKPSDTAKPAAPGGGRAAQLKLSSCPSGRQPAALLDVRSVPGLDGSGWEVFDIWKLFRNFKNSAQLCLELEAWERGRAVDLRGLGFDRAARQVHEKALFLVFGRTKKRDLFFNEIKARSGQDDKTVYEYLFSQRRKRRAPLATRQGKRPSKNLKARCSRKALHVNFKDMGWDDWIIAPLEYEAFHCEGLCEFPLRSHPEPTNHAVIQTLMNSMDPESTPPTCCVPTRLSPISILFIDSANNVVYKQYEDMVVESCGCR [L441P]

Variants of: B1
Details: with bmr1a_human BMPR1A
Remark: another data set of the same source

Row | effect of a mutation on the interaction | Variant
6 | disrupting interaction | MRLPKLLTFLLWYLAWLDLEFICTVLGAPDLGQRPQGTRPGLAKAEAKERPPLARNVFRPGGHSYGGGATNANARAKGGTGQTGGLTQPKKDEPKKLPPRPGGPEPKPGHPPQTRQATARTVTPKGQLPGGKAPPKAGSVPSSFLLKKAREPGPPREPKEPFRPPPITPHEYMLSLYRTLSDADRKGGNSSVKLEAGLANTITSFIDKGQDDRGPVVRKQRYVFDISALEKDGLLGAELRILRKKPSDTAKPAAPGGGRAAQLKLSSCPSGRQPAALLDVRSVPGLDGSGWEVFDIWKLFRNFKNSAQLCLELEAWERGRAVDLRGLGFDRAARQVHEKALFLVFGRTKKRDLFFNEIKARSGQDDKTVYEYLFSQRRKRRAPLATRQGKRPSKNLKARCSRKALHVNFKDMGWDDWIIAPLEYEAFHCEGLCEFPLRSHPEPTNHAVIQTLMNSMDPESTPPTCCVPTRLSPISILFIDSANNVVYKQYEDMVVESCGCR [L441P]

Variants of: B2
Details: with bmp2_human BMP2, P12643

Row | effect of a mutation on the interaction | Variant
7 | disrupting interaction | MLLRSAGKLNVGTKKEDGESTAPTPRPKVLRCKCHHHCPEDSVNNICSTDGYCFTMIEEDDSGLPVVTSGCLGLEGSDAQCRDTPIPHQRRSIECCTERNECNKDLHPTLPPLKNRDFVDGPIHHRALLISVTVCSLLLVLIILFCYFRYKRQETRPRYSIGLEQDETYIPPGESLRDLIEQSQSSGSGSGLPLLVQRTIAKQIQMVKQIGKGRYGEVWMGKWRGEKVAVKVFFTTEEASWFRETEIYQTVLMRHENILGFIAADIKGTGSWTQLYLITDYHENGSLYDYLKSTTLDAKSMLKLAYSSVSGLCHLHTEIFSTQGKPAIAHRDLKSKNILVKKNGTCCIADLGLAVKFISDTNEVDIPPNTRVGTKRYMPPEVLDESLNRNHFQSYIMADMYSFGLILWEVARRCVSGGIVEEYQLPYHDLVPSDPSYEDMREIVCIKKLRPSFPNRWSSDECLRQMGKLMTECWAHNPASRLTALRVKKTLAKMSESQDIKL [F79A]
